Our source for the Kd and IC50 values is patent publication US20160115202A1 (OHIO STATE INNOVATION FOUNDATION, published 2016).

Read-outs that look alike come from different tables or passages of the source. Bridges are numbered along the chain shown (N, C = ends). Primed or numbered codes have the meaning given here. Where no end group is shown, it is not given here. [ ]: non-standard residue; d: D form. The star is where a group is joined. trimesoyl = trimesic acid scaffold joined by three amide bonds (bicycle); trimesoyl″ = trimesic acid scaffold joined by three amide bonds; FITC = O=C1OC2(c3ccc(O)cc3Oc3cc(O)ccc32)c2ccc(NC(=S)*)cc21; Phg = N[C@H](C(=O)O)c1ccccc1; Nle = CCCC[C@H](N)C(=O)O; Pra = C#CC[C@H](N)C(=O)O; dNal = D-naphthylalanine; Dap = NC[C@H](N)C(=O)O

The target in test [1] is GST-tagged K-Ras G12V protein (Example 4) (UniProt P01116). The test is described as follows: FA, binding in solution.
For test [2], the target named is T1, ybbR-tagged extracellular domain of human TNFα (aa 77-233) (human, UniProt P01375 77-233, biotin or Texas Red attached at the ybbR tag by Sfp where labeled TNFα was used).
T1 construct: range 77-233; Expressed in E. coli from pET-22b(+)-ybbR; also called TNF-alpha; tumor necrosis factor-alpha
The test can be described thus: FA competition; competitor FITC-labeled Necrostatin C1 (100 nM), TNFα 1600 nM.

Test [3] addresses T1, ybbR-tagged extracellular domain of …. The test is described as follows: FA competition; competitor FITC-labeled Necrostatin C2 (100 nM), TNFα 1600 nM.
Test [4] has the same target. The test can be described thus: FA, resynthesized FITC-labeled peptide titrated with TNFα.
Test [5] has as its target GST-tagged K-Ras G12V protein (Example 4) (UniProt P01116). The test can be described thus: FA, binding in solution. The source holds these as a separate data set.
Test [6] has as its target T1, ybbR-tagged extracellular domain of …. The test is described as follows: competition ELISA: 0.5 nM HRP-TNFR1 on immobilized biotinylated TNFα.
Protocol: A Nunc 96F Maxisorp plate was coated overnight with 100 μL of 5 mg/mL Neutravidin (in 50 mM Na₂CO₃, pH 9.0) at 4° C. The solution was removed and each well was washed with 100 μL of the blocking buffer containing 3% BSA. […] The wells were quickly washed twice with a washing buffer (0.01% Tween 20 in PBS buffer). […] After incubation at 4° C. for 1.5 h, the plate was washed twice with the washing buffer and incubated with 100 μL of 3,3′,5,5′-tetramethylbenzidine (Sigma) for 30 min. The reaction was quenched by the addition of 100 μL of 1 M phosphoric acid. The absorbance at 450 nm was measured and plotted against the peptide concentration and the IC₅₀ value was obtained by curve fitting.

T1 sequence (P01375 other isoform, or with tags, fused parts or gaps limits assumed): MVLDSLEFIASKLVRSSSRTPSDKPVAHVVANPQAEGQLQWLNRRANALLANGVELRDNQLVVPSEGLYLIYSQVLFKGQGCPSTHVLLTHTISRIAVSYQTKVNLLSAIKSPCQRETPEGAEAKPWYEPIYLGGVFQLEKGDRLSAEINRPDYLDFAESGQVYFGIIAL

“peptide 13, bicyclo(Ala-Orn-Phg-Arg-d-Asn-Pra-Ile-d-Phe-K-FNalR4-Dap)-K” yielded a Kd in test [1] of 6 µM. This counts as single-digit micromolar.

B1: Necrostatin C2 (unlabeled) (peptide)
peptide: A[dF]W[dT]QK[Nle][dL]AH[Dap]
modifications: linker (positions not given here) via trimesic acid (trimesoyl); not fully specified (bridges)
notes: also called unlabeled Necrostatin C2
As to B1, the IC50 in test [2] was ~4 µM; in test [3], ~2 µM.

B2: FITC-labeled Necrostatin C1 (resynthesized) (peptide)
peptide: [Phg]Y[dA]KY[dF]G[dK]H[Dap]K(FITC)
modifications: linker (positions not given here) via trimesoyl; not fully specified (bridges)
In turn, B2 gave a Kd in test [4] of 0.45 µM.

B3: peptide 12, bicyclo(d-Ala-Gln-Phg-Arg-d-Asn-Pra-Ile-Asp-K-FNalR4-Dap)-K (peptide)
peptide: [dA]Q[Phg]R[dN][Pra]IDKF[dNal]RRRR[Dap]K
modifications: linker N-1-9-16 via trimesoyl″; not fully specified (residue 6); also: dye label on C-terminal Lys not given here
Molecule B3 had a Kd in test [5] of 2 µM.

B4: Necrostatin C1 (label not stated) (peptide)
peptide: [Phg]Y[dA]KY[dF]G[dK]H[Dap]
modifications: linker (positions not given here) via trimesic acid (trimesoyl); not fully specified (bridges)
notes: As used in the TNFα-TNFR1 ELISA and the MTT assays; also called Nercostatin C1
As for B4, the IC50 in test [6] came to 3.1 µM.
